# Like-named read-outs stand apart in the source and are kept apart here.
# How the values were obtained:
# Assay in all cases: cell-based or functional assay
# [1] = molecular target: intermediate-affinity IL2 receptor (IL2Rβγ), human (human) (UniProt P14784)
# [2] = molecular target: T1, high-affinity IL2 receptor (IL2Rαβγ) of the mouse T cell line CTLL-2 (mouse) (UniProt P01590)
# T1 sequence (looked up) 1: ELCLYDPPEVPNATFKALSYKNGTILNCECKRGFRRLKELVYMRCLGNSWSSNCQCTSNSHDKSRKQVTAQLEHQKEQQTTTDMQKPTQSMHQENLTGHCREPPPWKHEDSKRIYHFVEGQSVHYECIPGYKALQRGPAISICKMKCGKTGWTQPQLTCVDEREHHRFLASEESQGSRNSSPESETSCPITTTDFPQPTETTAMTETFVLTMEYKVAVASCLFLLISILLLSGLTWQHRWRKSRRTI
# T1 sequence (looked up) 2: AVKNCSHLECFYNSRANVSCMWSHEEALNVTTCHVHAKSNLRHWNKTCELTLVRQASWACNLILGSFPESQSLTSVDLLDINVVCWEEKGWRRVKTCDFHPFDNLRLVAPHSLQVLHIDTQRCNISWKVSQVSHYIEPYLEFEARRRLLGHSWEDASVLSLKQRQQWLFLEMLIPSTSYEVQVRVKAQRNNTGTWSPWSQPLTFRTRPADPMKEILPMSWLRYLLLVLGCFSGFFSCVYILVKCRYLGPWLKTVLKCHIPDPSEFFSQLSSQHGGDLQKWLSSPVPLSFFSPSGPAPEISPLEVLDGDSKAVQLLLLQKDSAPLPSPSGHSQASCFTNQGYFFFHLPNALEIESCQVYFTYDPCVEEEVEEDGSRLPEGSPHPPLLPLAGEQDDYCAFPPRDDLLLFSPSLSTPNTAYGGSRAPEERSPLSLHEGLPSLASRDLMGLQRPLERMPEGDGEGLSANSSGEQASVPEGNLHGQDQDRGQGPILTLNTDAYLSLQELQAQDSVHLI
# T1 sequence (looked up) 3: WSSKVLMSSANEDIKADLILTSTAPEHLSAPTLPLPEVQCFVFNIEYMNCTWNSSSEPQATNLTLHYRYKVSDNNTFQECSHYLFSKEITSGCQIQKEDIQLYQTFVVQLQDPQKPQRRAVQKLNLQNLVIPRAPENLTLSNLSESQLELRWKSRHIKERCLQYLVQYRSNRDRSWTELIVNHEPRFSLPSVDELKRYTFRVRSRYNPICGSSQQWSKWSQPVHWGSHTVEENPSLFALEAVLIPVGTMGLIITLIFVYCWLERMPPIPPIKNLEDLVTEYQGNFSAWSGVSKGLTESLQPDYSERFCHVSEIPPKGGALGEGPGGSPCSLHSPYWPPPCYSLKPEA
# [3] = molecular target: intermediate-affinity IL2 receptor (IL2Rβγ), human (human) (UniProt P14784); design: unit not given beside the values
# [4] = molecular target: high-affinity IL2 receptor (IL2Rαβγ), human, on CD4+CD25+FoxP3+ regulatory T cells (human) (UniProt P01589); design: unit not given beside the values
# Chain of UniProt P01589 (P01589 22-272, chain 1 of 3): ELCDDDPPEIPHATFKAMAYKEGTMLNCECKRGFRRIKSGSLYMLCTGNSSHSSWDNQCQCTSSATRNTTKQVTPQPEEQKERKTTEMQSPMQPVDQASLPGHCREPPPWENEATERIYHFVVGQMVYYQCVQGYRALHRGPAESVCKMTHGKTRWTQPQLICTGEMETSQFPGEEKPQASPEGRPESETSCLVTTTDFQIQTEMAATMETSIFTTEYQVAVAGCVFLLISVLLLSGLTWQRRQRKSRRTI
# Chain of UniProt P01589 (P14784 27-551, chain 2 of 3, further chain): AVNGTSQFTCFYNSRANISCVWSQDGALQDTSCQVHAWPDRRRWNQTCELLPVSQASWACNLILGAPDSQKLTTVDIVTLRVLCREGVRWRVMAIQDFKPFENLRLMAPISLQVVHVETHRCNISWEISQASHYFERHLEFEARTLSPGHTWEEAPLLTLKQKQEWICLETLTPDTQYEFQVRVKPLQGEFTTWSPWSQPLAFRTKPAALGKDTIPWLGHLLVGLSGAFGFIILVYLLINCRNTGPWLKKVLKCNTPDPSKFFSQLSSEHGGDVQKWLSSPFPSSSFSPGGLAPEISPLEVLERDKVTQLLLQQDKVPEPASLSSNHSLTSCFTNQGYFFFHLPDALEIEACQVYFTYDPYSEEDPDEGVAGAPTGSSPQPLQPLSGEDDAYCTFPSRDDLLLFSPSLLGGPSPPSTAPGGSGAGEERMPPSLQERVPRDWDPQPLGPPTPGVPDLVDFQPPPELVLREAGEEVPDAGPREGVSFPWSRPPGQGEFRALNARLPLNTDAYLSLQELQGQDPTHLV
# Chain of UniProt P01589 (P31785 23-369, chain 3 of 3, further chain): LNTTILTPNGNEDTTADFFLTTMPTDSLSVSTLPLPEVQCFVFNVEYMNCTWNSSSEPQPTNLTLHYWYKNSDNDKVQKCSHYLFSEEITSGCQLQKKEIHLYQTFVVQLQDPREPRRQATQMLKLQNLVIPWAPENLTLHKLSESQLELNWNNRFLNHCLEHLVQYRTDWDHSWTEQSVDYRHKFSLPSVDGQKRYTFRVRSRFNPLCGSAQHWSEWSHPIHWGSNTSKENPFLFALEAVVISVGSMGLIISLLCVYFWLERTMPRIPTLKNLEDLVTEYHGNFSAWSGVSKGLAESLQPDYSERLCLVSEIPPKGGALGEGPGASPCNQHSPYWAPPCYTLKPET
# [5] = molecular target: T1, high-affinity IL2 receptor (IL2Rαβγ) of the mouse T cell line CTLL-2 (mouse); remark: listed apart in the source
# Chain of UniProt P14784 (P14784 27-551, chain 1 of 2): as the sequence (P14784 27-551, chain 2 of 3, further chain) above
# Chain of UniProt P14784 (P31785 23-369, chain 2 of 2, further chain): as the sequence (P31785 23-369, chain 3 of 3, further chain) above
substance,measurement,setting,value
hAlb-hIL2 (ligand),EC50 of TF-1 IL2Rβγ proliferation (%-supernatant),[1],2.35
same,EC50 of CTLL-2 proliferation (%-supernatant),[2],0.214
same,"EC50 of STAT5 phosphorylation, CD4+CD25- T helper cells (%-supernatant)",[3],4.36
same,"EC50 of STAT5 phosphorylation, CD8+ cytotoxic T cells (%-supernatant)",[3],6.84
same,"EC50 of STAT5 phosphorylation, CD4+CD25+FoxP3+ Treg (%-supernatant)",[4],0.111
same,EC50 of CTLL-2 proliferation (%-supernatant),[5],0.115
